Drawing on publication PMC6996796, this text covers Kd for one substance.

This assay deals with branched K11/K48 triubiquitin (Homo sapiens) (UniProt P0CG48). Put plainly: NMR. The following applies: modification not given.

Several values for one entry are separate records, joined by “and”; a condition that tells them apart may be missing. Equal values may be shown once.

hHR23A UBA2 UBA2, P54725, sequence (P54725 315-361): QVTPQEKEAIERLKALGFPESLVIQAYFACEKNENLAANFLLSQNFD

One may read the Kd as a measure of binding affinity in units of concentration. High values mean weaker binding, low ones tighter binding. As for hHR23A UBA2 UBA2, P54725, the Kd is 26 µM and 248 µM.
